The values below are quoted from earlier work in PMC12404997.

The series deals with RhoA (Homo sapiens) (UniProt P61586).

pKd: −log10 of the molar value.

Chain of UniProt P61586 (P61586 1-190): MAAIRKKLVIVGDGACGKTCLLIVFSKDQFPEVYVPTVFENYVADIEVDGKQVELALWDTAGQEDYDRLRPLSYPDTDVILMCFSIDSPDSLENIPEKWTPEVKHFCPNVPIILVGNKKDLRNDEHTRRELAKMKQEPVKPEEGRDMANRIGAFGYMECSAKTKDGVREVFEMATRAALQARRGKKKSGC

On to anillin (from UniProt Q9NQW6), for which the negative logarithm of the Kd (pKd) was 5.15.
